The results in this text go back to paper PMC5877318.

Among the targets are mZFP568 ZF1-11 (Mus musculus, UniProt E9PYI1 363-665); mZFP568 ZF2-11 (Mus musculus, UniProt E9PYI1 391-665); mZFP568 ZF1-10 (Mus musculus, UniProt E9PYI1 363-637).
Holding throughout (experiment): X-ray crystallography

mZFP568 ZF1-11, sequence (E9PYI1 363-665): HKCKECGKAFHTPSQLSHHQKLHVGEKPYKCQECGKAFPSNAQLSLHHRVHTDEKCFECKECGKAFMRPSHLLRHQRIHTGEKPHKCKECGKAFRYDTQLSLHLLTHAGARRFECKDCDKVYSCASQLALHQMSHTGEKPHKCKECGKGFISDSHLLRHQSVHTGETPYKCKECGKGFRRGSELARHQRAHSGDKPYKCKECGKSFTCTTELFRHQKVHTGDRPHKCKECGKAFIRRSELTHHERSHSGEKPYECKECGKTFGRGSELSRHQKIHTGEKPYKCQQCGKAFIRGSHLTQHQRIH
mZFP568 ZF1-10, sequence (E9PYI1 363-637): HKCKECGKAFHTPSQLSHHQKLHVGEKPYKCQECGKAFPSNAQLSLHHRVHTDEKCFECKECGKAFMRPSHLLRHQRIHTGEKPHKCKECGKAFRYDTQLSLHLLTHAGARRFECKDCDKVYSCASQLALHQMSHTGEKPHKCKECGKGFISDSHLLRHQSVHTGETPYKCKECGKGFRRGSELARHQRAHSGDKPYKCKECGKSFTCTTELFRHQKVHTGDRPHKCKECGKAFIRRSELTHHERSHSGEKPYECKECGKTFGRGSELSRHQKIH
mZFP568 ZF2-11, sequence (E9PYI1 391-665): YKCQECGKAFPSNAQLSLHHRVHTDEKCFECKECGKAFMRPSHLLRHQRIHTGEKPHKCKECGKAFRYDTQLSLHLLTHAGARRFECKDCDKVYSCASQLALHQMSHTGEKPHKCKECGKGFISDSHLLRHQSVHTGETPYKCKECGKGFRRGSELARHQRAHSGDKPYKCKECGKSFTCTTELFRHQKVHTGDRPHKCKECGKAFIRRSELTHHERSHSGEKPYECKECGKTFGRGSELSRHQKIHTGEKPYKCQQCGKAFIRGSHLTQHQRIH

B1: 28-bp mouse Igf2-P0 crystallization oligo (dsDNA)
DNA 1: TGTGGGCGTGGCACAGGTAAAAAGGGCA
DNA 2: TGCCCTTTTTACCTGTGCCACGCCCACA
Turning to B1, the binding result with mZFP568 ZF1-11 and in the data set with mZFP568 ZF2-11 was “binds” throughout.

B2: 26-bp mouse Igf2-P0 crystallization oligo (dsDNA)
DNA 1: GTGGGCGTGGCACAGGTAAAAAGGGC
DNA 2: GCCCTTTTTACCTGTGCCACGCCCAC
Take B2: the binding result with mZFP568 ZF1-10 is “binds”.
